Measurements from patent US20150203556A1 (UAB RESEARCH FOUNDATION, published 2015).
One block for each binder: values may come before it.

Columns and labels:
[1] = target: T1, IL-20/IL-20R2 binary complex (human, UniProt Q9NYY1 25-176; Q6UXL0 30-230); experiment: SPR co-injection: IL-20 fixed at 250 nM with IL-22R1 (1000-7.81 nM) over amine coupled IL-20R2; 250 nM IL-20 sensorgram subtracted; 1:1 fit, apparent value
T1 construct: also called 20 + 20R2; IL-20+soluble IL-20R2
T1 chain 1: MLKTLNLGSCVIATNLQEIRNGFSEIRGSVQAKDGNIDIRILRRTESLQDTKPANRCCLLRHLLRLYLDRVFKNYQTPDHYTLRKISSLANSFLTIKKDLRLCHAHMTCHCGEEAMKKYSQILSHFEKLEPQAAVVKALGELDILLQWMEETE
T1 chain 2: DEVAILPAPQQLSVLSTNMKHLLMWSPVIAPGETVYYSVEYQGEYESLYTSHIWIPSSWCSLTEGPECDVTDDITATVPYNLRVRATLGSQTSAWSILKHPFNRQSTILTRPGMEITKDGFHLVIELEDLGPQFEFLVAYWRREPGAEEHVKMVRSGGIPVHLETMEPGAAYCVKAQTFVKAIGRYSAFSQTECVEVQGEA
Method: (§1) FIGS. 12A-12H are graphs showing IL19/IL-20 receptor interactions and complex stability. SPR sensorgrams, data fits (black lines), KD values, and residual errors obtained for complexes described at the top of each panel. Panels are labeled as injected soluble proteins, followed by a semicolon (:), then the protein coupled to chip surface, IL-20R1 or IL-20R2. FIGS. 12A and 12B show injection of IL-19 and IL-20 (max conc.=10 μM, 2 fold diluted to 0.625 μM) over IL-20R1. FIGS. 12C and 12D show injection of IL-19 (max conc.=500 nM, 2-fold diluted to 3.91 nM) or IL-20 (max conc.=2000 nM, 2-fold diluted to 62.5 nM) over IL-20R2. FIGS. 12E-12H show IL-19 and IL-20 (fixed at 250 nM) mixed with different concentrations of IL-20R1, or IL-22R1, (max conc.=1000 nM, 2-fold diluted to 7.81 nM) and injected over IL-20R2. To estimate R1 chain affinity/complex stability, the contribution of the ligand was removed by using the 250 nM IL-19, or IL-20, sensorgram as the blank subtraction. All sensorgrams were fit to 1:1 binding models.
(§2) Surface Plasmon Resonance Experiments SPR experiments were performed on Biacore T-100, and T-200, (GE healthcare, Waukesha, Wis.) systems. […] Soluble proteins were injected for 75-90 seconds (30 uL/min) over the surfaces, and the dissociation phase was followed for 75-120 seconds depending on the stability of the complex being analyzed. […]

[2] = target: T1, IL-20/IL-20R2 binary complex; experiment: SPR co-injection: IL-20 fixed at 250 nM with IL-22R1 (1000-7.81 nM) over amine coupled IL-20R2; 250 nM IL-20 sensorgram subtracted; 1:1 fit, apparent KD (KDapp)
Method: as §1, §2

IL-19 = target: T2, IL-19 (human, UniProt Q9UHD0 25-177); experiment: SPR (Biacore), IL-19 (500-3.91 nM) over IL-20R2-fc captured by anti-FC Ab, 1:1 fit
T2 construct: also called Interleukin-19; IL-19a
T2 sequence: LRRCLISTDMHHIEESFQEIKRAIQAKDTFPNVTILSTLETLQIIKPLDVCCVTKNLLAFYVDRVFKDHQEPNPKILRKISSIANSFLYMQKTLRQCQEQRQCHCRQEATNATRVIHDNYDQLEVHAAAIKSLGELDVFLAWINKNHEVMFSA
Method: as §1, with “SPR” for “FIGS. 12A-12H are graphs showing IL19/IL-20 receptor interactions and complex stability. SPR”
(§3) Surface Plasmon Resonance Experiments SPR experiments were performed on Biacore T-100, and T-200, (GE healthcare, Waukesha, Wis.) systems. Soluble IL-20R2 was amine coupled (100-130 RU) to CM5 research grade biacore chips in 10 mM sodium acetate, pH 5.0. IL-20R1-FC and IL-20R2-FC were coupled (60-120 RU) to CM5 chips using an anti-FC Ab coupling kit using the manufacturer's instructions (GE healthcare, Waukesha, Wis.). All binding experiments were performed in running buffer consisting of 10 mM Hepes, pH 7.4, 150 mM NaCl, 0.04% P20, and 0.1 mg/mL bovine serum albumin (Sigma, St. Louis, Mo.). No regeneration was performed between sample injections on IL-20R2 amine-coupled surfaces. […] Soluble proteins were injected for 75-90 seconds (30 uL/min) over the surfaces, and the dissociation phase was followed for 75-120 seconds depending on the stability of the complex being analyzed. […]
IL-19/IL-20R2 and IL-20/IL-20R2 interactions were determined by SPR methods with IL-20R2 attached to a biacore chip by amine coupling, or as an IL-20R2-FC fusion protein.

IL-20 [3] = target: T3, IL-20 (human, UniProt Q9NYY1 25-176); experiment: SPR, IL-20 over IL-20R2 (FIG. 12D)
T3 construct: The crystal model holds residues 24-176; also called Interleukin-20; IL-20b
T3 sequence: T1 chain 1
Method: as §1, §2

IL-20 [4] = target: T3, IL-20; experiment: SPR (Biacore), IL-20 (2000-62.5 nM) over IL-20R2-fc captured by anti-FC Ab, 1:1 fit
IL-20 [5] = target: T3, IL-20; experiment: SPR, site KD as listed in Table 5
[6] = target: T4, IL-20 bound on IL-20R2-fc (IL-20/IL-20R2-fc binary complex) (human, UniProt Q9NYY1 25-176); experiment: SPR co-injection: IL-20 fixed at 250 nM with IL-20R1 (1000-7.81 nM) over IL-20R2-fc; 250 nM IL-20 sensorgram subtracted; 1:1 fit, apparent KD (KDapp)
Method: (§4) To estimate R1 chain affinity/complex stability, the contribution of the ligand was removed by using the 250 nM IL-19, or IL-20, sensorgram as the blank subtraction. All sensorgrams were fit to 1:1 binding models.
(§5) To estimate the stability of IL-20 (IL-20/IL-20R1/IL-20R2 and IL-20/IL-22R1/IL-20R2) and IL-19 (IL-19/IL-20R1/IL-20R2) ternary complexes (FIG. 1), IL-19, or IL-20, was co-injected with soluble IL-20R1 over a biacore chip coupled with IL-20R2. […] The same results, although with different KDapp values, were obtained by evaluating ternary complex stability by injecting soluble IL-20R2 and IL19, or IL-20, over biacore chip surfaces of IL-20R1 or IL-22R1 (FIG. 13).
as §3, with “Wis.).” for “Wis.). All binding experiments were performed in running buffer consisting of 10 mM Hepes, pH 7.4, 150 mM NaCl, 0.04% P20, and 0.1 mg/mL bovine serum albumin (Sigma, St. Louis, Mo.). No regeneration was performed between sample injections on IL-20R2 amine-coupled surfaces.”

[7] = target: T5, IL-19 bound on IL-20R2-fc (IL-19/IL-20R2-fc binary complex) (human, UniProt Q9UHD0 25-177); experiment: SPR co-injection: IL-19 fixed at 250 nM with IL-20R1 (1000-7.81 nM) over IL-20R2-fc; 250 nM IL-19 sensorgram subtracted; 1:1 fit, apparent KD (KDapp)
Method: as §4, §5
as §3, with “Wis.).” for “Wis.). All binding experiments were performed in running buffer consisting of 10 mM Hepes, pH 7.4, 150 mM NaCl, 0.04% P20, and 0.1 mg/mL bovine serum albumin (Sigma, St. Louis, Mo.). No regeneration was performed between sample injections on IL-20R2 amine-coupled surfaces.”

[8] = target: T5, IL-19 bound on IL-20R2-fc …; experiment: SPR co-injection: IL-19 fixed at 250 nM with IL-20R1 (1000-7.81 nM) over IL-20R2-fc; 250 nM IL-19 sensorgram subtracted; 1:1 fit, apparent value
Method: as §1, §2

[9] = target: T4, IL-20 bound on IL-20R2-fc …; experiment: SPR co-injection: IL-20 fixed at 250 nM with IL-20R1 (1000-7.81 nM) over IL-20R2-fc; 250 nM IL-20 sensorgram subtracted; 1:1 fit, apparent value
Method: as §1, §2

koff [1]: 0.0893 s⁻¹
kon [1]: 65500 M⁻¹ s⁻¹
Kd [2]: 1.36 µM
B1: IL-22R1 (sIL-22R1DDQ) (receptor)
chain: HAPEDPSDLLQHVKFQSSNFENILTWDSGPEGTPDTVYSIEYKTYGERDWVAKKGCQRITRKSCDLTVETGDLQELYYARVTAVSAGGRSATKMTDRFSSLQHTTLKPPDVTCISKVRSIQMIVHPTPTPIRAGDGHRLTLEDIFHDLFYHLELQVNRTYQMHLGGKQREYEFFGLTPDTEFLGTIMICVPTWAKESAPYMCRVKTLPDRT

Kd (IL-19): 0.105 µM
koff (IL-19): 0.0242 s⁻¹
kon (IL-19): 230000 M⁻¹ s⁻¹
Kd (IL-20 [3]): 0.697 µM
Kd (IL-20 [4]): 0.686 µM
koff (IL-20 [4]): 0.219 s⁻¹
kon (IL-20 [4]): 319000 M⁻¹ s⁻¹
Kd (IL-20 [5]): 0.687 µM
B2: IL-20R2-FC (Fc fusion)
chain: DEVAILPAPQQLSVLSTNMKHLLMWSPVIAPGETVYYSVEYQGEYESLYTSHIWIPSSWCSLTEGPECDVTDDITATVPYNLRVRATLGSQTSAWSILKHPFNRQSTILTRPGMEITKDGFHLVIELEDLGPQFEFLVAYWRREPGAEEHVKMVRSGGIPVHLETMEPGAAYCVKAQTFVKAIGRYSAFSQTECVEVQGEAGSGGGGPSVFIFPPKIKDVLMISLSPIVTCVVVDVSEDDPDVQISWFVNNVEVHTAQTQTHREDYNSTLRVVSALPIQHQDWMSGKEFKCKVNNKDLPAPIERTISKPKGSVRAPQVYVLPPPEEEMTKKQVTLTCMVTDFMPEDIYVEWTNNGKTELNYKNTEPVLDSDGSYFMTSKLRVEKKNWVERNSYSCSVVHEGLHNHHTTKSFGGCGTPASGGLNDIFEAQKIEWHE
notes: also called IL-20-FC

Kd [6]: 0.319 µM
Kd [7]: 3.12 µM
koff [8]: 0.139 s⁻¹
kon [8]: 44500 M⁻¹ s⁻¹
koff [9]: 0.0171 s⁻¹
kon [9]: 53700 M⁻¹ s⁻¹
B3: soluble IL-20R1 (receptor)
chain: VPCVSGGLPKPANITFLSINMKNVLQWTPPEGLQGVKVTYTVQYFIYGQKKWLNKSECRNINRTYCDLSAETSDYEHQYYAKVKAIWGTKCSKWAESGRFYPFLETQIGPPEVALTTDEKSISVVLTAPEKWKRNPEDLPVSMQQIYSNLKYNVSVLNTKSNRTWSQCVTNHTLVLTWLEPNTLYCVHVESFVPGPPRRAQPSEKQCARTLKDQSS
